{
  "source": "paper PMC11039470",
  "about": "“Catalytic specificity and crystal structure of cystathionine γ-lyase from Pseudomonas aeruginosa” (Scientific Reports, 2024)",
  "key": {"N[C@@H](CS)C(=O)O": {"tested_on": "N[C@@H](CS)C(=O)O", "test": "purified protein", "assay_type": "biochemical, Pseudomonas aeruginosa", "details": "PLP PLP-containing active site"}, "[1]": {"tested_on": "N[C@@H](CCSC[C@H](N)C(=O)O)C(=O)O", "test": "DTNB assay steady-state kinetics (Km)", "assay_type": "biochemical, Pseudomonas aeruginosa", "details": "PLP PLP-containing active site"}, "[2]": {"biological_target": "PaCGL F114N variant (\"humanized\"), N-terminal 6x-His tag (Pseudomonas aeruginosa)", "test": "SEC; gel filtration on Sephacryl S-200 16/60 HR in 20 mM sodium phosphate pH 8.0, 150 mM NaCl, 0.1 mM DTT; calibration curve; self-association (tetramer)"}, "[3]": {"biological_target": "PaCGL F114A variant, N-terminal 6x-His tag (Pseudomonas aeruginosa)", "test": "SEC; gel filtration on Sephacryl S-200 16/60 HR in 20 mM sodium phosphate pH 8.0, 150 mM NaCl, 0.1 mM DTT; calibration curve; self-association (tetramer)"}, "[4]": {"biological_target": "T1, cystathionine γ-lyase (PaCGL) (Pseudomonas aeruginosa, UniProt Q9I6A0)", "T1 construct": "gene PA0400; 394-residue PaCGL (PAO1_PA0400), 6x-His tagged; homotetramer", "test": "intrinsic fluorescence titration of apo-PaCGL; […] Å crystal structure", "assay_type": "binding"}, "[5]": {"biological_target": "cystathionine γ-lyase from Pseudomonas aeruginosa (PaCGL), wild type, N-terminal 6x-His tag (Pseudomonas aeruginosa)", "test": "SEC; gel filtration on Sephacryl S-200 16/60 HR in 20 mM sodium phosphate pH 8.0, 150 mM NaCl, 0.1 mM DTT; calibration curve; self-association (tetramer)"}, "[6]": {"substrate": "N[C@@H](CCS)C(=O)O", "test": "lead acetate H2S assay kinetics (Km); LC-MS/MS", "assay_type": "biochemical, Pseudomonas aeruginosa", "details": "PLP PLP-containing active site"}, "purified protein": {"substrate": "N[C@@H](CS)C(=O)O", "test": "purified protein", "assay_type": "biochemical, Pseudomonas aeruginosa", "details": "PLP amino acid site […] of the active site (second L-Cys at site […])"}, "[7]": {"substrate": "N[C@@H](CCSC[C@H](N)C(=O)O)C(=O)O", "test": "DTNB assay steady-state kinetics (Km); UV-Vis and CD spectra; LC-MS/MS", "assay_type": "biochemical, Pseudomonas aeruginosa", "details": "PLP PLP-containing active site (chamber-1)"}},
  "data": [
    {"molecule": "cystathionine γ-lyase (PaCGL) (Pseudomonas aeruginosa PAO1; F114N)", "values": [
      {"measurement": "Km", "setting": "N[C@@H](CS)C(=O)O", "value": "1600 ± 300", "unit": "µM"},
      {"measurement": "kcat", "setting": "N[C@@H](CS)C(=O)O", "value": "0.38 ± 0.06", "unit": "s⁻¹"},
      {"measurement": "kcat/Km", "setting": "N[C@@H](CS)C(=O)O", "value": "240 ± 80", "unit": "M⁻¹ s⁻¹"},
      {"measurement": "Km", "setting": "[1]", "value": "500 ± 100", "unit": "µM"},
      {"measurement": "kcat", "setting": "[1]", "value": "3.2 ± 0.1", "unit": "s⁻¹"},
      {"measurement": "kcat/Km", "setting": "[1]", "value": "6400 ± 1500", "unit": "M⁻¹ s⁻¹"}
    ]},
    {"molecule": "PaCGL F114N variant (\"humanized\"), N-terminal 6x-His tag (enzyme)", "values": [
      {"measurement": "stoichiometry N", "setting": "[2]", "value": 4}
    ]},
    {"molecule": "PaCGL F114A variant, N-terminal 6x-His tag (enzyme)", "values": [
      {"measurement": "stoichiometry N", "setting": "[3]", "value": 4}
    ]},
    {"molecule": "cystathionine γ-lyase (PaCGL) (Pseudomonas aeruginosa PAO1; F114A)", "values": [
      {"measurement": "Km", "setting": "N[C@@H](CS)C(=O)O", "value": "490 ± 10", "unit": "µM"},
      {"measurement": "kcat", "setting": "N[C@@H](CS)C(=O)O", "value": "0.13 ± 0.01", "unit": "s⁻¹"},
      {"measurement": "kcat/Km", "setting": "N[C@@H](CS)C(=O)O", "value": "270 ± 30", "unit": "M⁻¹ s⁻¹"},
      {"measurement": "Km", "setting": "[1]", "value": "600 ± 100", "unit": "µM"},
      {"measurement": "kcat", "setting": "[1]", "value": "3.2 ± 0.2", "unit": "s⁻¹"},
      {"measurement": "kcat/Km", "setting": "[1]", "value": "5300 ± 1200", "unit": "M⁻¹ s⁻¹"}
    ]},
    {"molecule": "Cc1ncc(COP(=O)(O)O)c(C=O)c1O", "note": "[PLP]", "values": [
      {"measurement": "Kd", "setting": "[4]", "value": "150 ± 10", "unit": "nM"}
    ]},
    {"molecule": "cystathionine γ-lyase from Pseudomonas aeruginosa (PaCGL), wild type, N-terminal 6x-His tag (enzyme)", "values": [
      {"measurement": "stoichiometry N", "setting": "[5]", "value": 4}
    ]},
    {"molecule": "cystathionine γ-lyase (PaCGL) (Pseudomonas aeruginosa PAO1) (protein, PaCGL with N-terminal 6x-His tag) MSQHDQHPDAPAQAFATRVIHAGQAPDPSTGAIMPPIYANSTYIQESPGVHKGLDYGRSHNPTRWALERCVADLEGGTQAFAFASGLAAISSVLELLDAGSHIVSGNDLYGGTFRLFERVRRRSAGHRFSFVDPTDLQAFEAALTPETRMVWVETPSNPLLRLTDLRAIAQLCRARGIISVADNTFASPYIQRPLELGFDVVVHSTTKYLNGHSDVIGGIAIVGDNPDLRERLGFLQNSVGAISGPFDAFLTLRGVKTLALRMERHCSNALALAQWLERQPQVARVYYPGLASHPQHELAKRQMRGFGGMISLDLRCDLAGARRFLENVRIFSLAESLGGVESLIEHPAIMTHASIPAETRADLGIGDSLIRLSVGVEALEDLQADLAQALAKI", "values": [
      {"measurement": "Km", "setting": "[6]", "value": "1700 ± 300", "unit": "µM"},
      {"measurement": "kcat", "setting": "[6]", "value": "0.42 ± 0.04", "unit": "s⁻¹"},
      {"measurement": "kcat/Km", "setting": "[6]", "value": "250 ± 70", "unit": "M⁻¹ s⁻¹"},
      {"measurement": "Km", "setting": "purified protein", "value": "430 ± 30", "unit": "µM"},
      {"measurement": "Km", "setting": "[7]", "value": "300 ± 40", "unit": "µM"},
      {"measurement": "kcat", "setting": "[7]", "value": "5.2 ± 0.2", "unit": "s⁻¹"},
      {"measurement": "kcat/Km", "setting": "[7]", "value": "17000 ± 3000", "unit": "M⁻¹ s⁻¹"}
    ]}
  ]
}
